Test results: US20160264664A1 (Ablynx, published 2016)

T1: mouse P2X7 (mouse, UniProt Q9Z1M0 1-595)
T1 construct: on transfected CHO or Hek293 cells, or endogenous on Yac-1 cells; also called mP2X7; mouse purinoceptor P2X7
T1 sequence: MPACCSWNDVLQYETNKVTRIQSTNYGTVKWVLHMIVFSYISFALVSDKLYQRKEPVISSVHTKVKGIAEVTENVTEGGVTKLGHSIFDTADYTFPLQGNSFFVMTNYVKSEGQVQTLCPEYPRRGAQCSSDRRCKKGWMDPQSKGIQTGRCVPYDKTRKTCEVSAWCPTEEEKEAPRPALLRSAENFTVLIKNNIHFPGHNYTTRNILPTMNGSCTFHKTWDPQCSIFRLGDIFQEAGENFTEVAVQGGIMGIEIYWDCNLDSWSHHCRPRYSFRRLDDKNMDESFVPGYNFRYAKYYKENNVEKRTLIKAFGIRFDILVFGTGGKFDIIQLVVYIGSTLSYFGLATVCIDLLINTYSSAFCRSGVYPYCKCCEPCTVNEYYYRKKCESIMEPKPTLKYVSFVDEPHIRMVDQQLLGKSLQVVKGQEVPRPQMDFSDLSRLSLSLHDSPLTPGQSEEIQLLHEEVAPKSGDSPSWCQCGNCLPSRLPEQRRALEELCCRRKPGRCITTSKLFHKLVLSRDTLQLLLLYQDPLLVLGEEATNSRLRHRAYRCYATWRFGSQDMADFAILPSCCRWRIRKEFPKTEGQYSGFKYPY

T2: human P2X4 (human, UniProt Q99571 1-388)
T2 construct: whole, on cells; also called hP2X4
T2 sequence (looked up): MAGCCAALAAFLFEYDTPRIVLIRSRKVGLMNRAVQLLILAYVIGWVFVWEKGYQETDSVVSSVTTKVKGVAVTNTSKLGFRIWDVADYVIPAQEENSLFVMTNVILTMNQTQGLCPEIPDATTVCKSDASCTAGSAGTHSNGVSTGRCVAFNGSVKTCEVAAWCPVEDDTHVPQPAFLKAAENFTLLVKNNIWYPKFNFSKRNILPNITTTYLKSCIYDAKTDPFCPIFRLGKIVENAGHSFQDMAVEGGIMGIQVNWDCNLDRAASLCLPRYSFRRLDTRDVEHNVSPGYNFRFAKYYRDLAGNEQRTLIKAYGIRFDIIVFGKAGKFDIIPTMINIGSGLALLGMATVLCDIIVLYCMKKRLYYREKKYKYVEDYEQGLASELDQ

T3: human P2X7 (human, UniProt Q99572 1-595)
T3 construct: on transfected Hek293 cells; also called hP2X7
T3 sequence: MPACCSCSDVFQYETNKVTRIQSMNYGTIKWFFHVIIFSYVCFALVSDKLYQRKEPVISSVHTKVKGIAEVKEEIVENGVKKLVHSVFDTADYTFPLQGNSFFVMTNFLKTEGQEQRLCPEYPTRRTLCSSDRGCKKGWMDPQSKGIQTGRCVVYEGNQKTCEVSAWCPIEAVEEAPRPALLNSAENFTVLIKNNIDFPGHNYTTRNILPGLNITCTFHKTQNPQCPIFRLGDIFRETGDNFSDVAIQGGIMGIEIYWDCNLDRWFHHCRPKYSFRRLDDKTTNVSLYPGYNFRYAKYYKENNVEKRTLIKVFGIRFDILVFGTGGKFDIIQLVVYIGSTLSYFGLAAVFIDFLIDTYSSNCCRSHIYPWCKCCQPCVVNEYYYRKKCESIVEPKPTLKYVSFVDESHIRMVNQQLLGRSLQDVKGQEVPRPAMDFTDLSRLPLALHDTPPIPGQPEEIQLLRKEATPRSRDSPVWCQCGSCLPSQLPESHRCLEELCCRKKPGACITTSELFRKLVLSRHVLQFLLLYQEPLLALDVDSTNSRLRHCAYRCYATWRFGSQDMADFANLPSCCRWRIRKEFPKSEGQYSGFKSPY


Assays:
mouse P2X7 [1] = target: T1, mouse P2X7; test: Table A-1 'P2X7 function'; screening on mP2X7-expressing cells
human P2X4 = target: T2, human P2X4; test: flow cytometry, Nanobody pre-incubated with anti-Myc-FITC
human P2X7 = target: T3, human P2X7; test: as above
mouse P2X7 [2] = target: T1, mouse P2X7; test: phage ELISA, mP2X7-CHO vs control CHO cells
Method: (§1) Sub-confluent cells were rinsed with PBS and fixed using 4% paraformaldehyde in PBS for 10 minutes at RT. Fixed cells were washed three times with PBS, and blocked with 2% BSA in PBS for 2 hours. Following blocking, 10-fold diluted culture supernatant containing phage was added and incubated for 1 hour. Cell-bound phage was detected via mouse anti-M13-HRP-conjugate (GE Healthcare, Cat nr. E2886). Rat mAb Hano43 was used as positive control.

mouse P2X7 [3] = target: T1, mouse P2X7; test: phage ELISA on fixed mP2X7-CHO vs untransfected CHO cells;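 note: phage culture supernatant diluted 10-fold, applied for 1 h to paraformaldehyde-fixed, BSA-blocked cells in 96-well plates, with bound phage read via HRP-linked anti-M13 antibody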
Method: as §1

mouse P2X7 [4] = target: T1, mouse P2X7; test: flow cytometry, periplasmic extract pre-incubated with anti-myc-FITC, on mP2X7-Hek293 cells;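 note: periplasmic extract diluted 10-fold and premixed 45 min at 4 °C with FITC anti-myc antibody, giving pseudo-bivalent Nanobodies, before binding to the cells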
Method: Ten-fold diluted PE were pre-incubation with 0.5 μg anti-myc FITC-conjugated antibodies (AbD Serotec, cat no. MCA2200F) (creating pseudo-bivalent Nanobodies in order to increase binding strength) in 0.1 ml PBS/10% FCS for 45 minutes at 4° C. […] Alternatively, sequential staining of 10-fold diluted PE with anti-myc FITC-conjugated antibodies was done after incubation with the cells.

mouse P2X7 [5] = target: T1, mouse P2X7; test: cell-based or functional assay

Binder	binding result (mouse P2X7 [1])	further results
P2X7PMP19H4 (VHH, family 26; on phage or c-myc/His6-tagged in assays) VHH: EVQLVESGGGLVQAGGSLRLSCVASGRTLSTAVMGWFRQAPGKERGLVAMISWSGSMTYYAKSVKGRFTISRDNAKNTMYLQMNSLKPEDTAVYYCAADMGGGPPDGDAMPRLSSGMDYWGKGTLVTVSS	binds	–
P2X7PMP16G3 (VHH, family 27; on phage or c-myc/His6-tagged in assays) VHH: EVQLVESGGGLVQAGGSLRLSCAASGNDFARFSIDAMGWYRQAPGKQRELVATVTEDGTKNYADSVKGRATISRDDANNSMYLEMNTLKPEDTAVYYCKMGGLIDGAAPYEFWGRGTQVTVSS	binds	–
P2X7PMP15C7 (VHH, family 28; on phage or c-myc/His6-tagged in assays) VHH: EMQLVESGGGWVQAGGSLRLSCASSGSIFSAGAMGWYRQPAGKQRELVADITLGGSTNYADSVKGRFTISRDNAKNAVFLQMNSLKPEDTAVYYCNGLINTFARKIPRYAWGQGTQVTVSS	binds	–
P2X7PMP18D12 (VHH, family 6; on phage or c-myc/His6-tagged in assays) VHH: EVQLVESGGDLVQAGGSLKLSCVVSGVTFDDGTIGWFRQAPGKEREGIACISRVDGTTYYRDSVKGRFTVSSDSAKTTVNLQMNSLKPEDTAVYYCAADYASLCTIETGYGSLYDYWGRGTQVTVSS	binds	–
P2X7PMP4B3 (VHH, family 6; on phage or c-myc/His6-tagged in assays) VHH: EVQLVESGGDLVQAGGSLKLSCVVSGVTFDDGTIGWFRQAPGKEREGIACISRVDGTTYYRDSVKGRFTVSSDSAKTTVNLQMNSLKPEDTAVYYCAADYASLCTIETGYGSLYDYWGKGTQVTVSS	binds	–
P2X7PMP7D8 (VHH, family 13; on phage or c-myc/His6-tagged in assays) VHH: EVQLVESGGGLVQPGGSLRLSCAASGLTLEYYNIGWFRQAPGKEREGVACIDWTEGSTFYVDSVKGRFTISTDNAKNTVYLHMNSLEPEDTAVYYCAAGWGRVITVQHMCADRSLFTSWGQGTQVTVSS	binds	–
P2X7PMP18A7 (VHH, family 25; on phage or c-myc/His6-tagged in assays) VHH: EVQLVESGGDLVQPGGSLRLSCVASGFALEEHAIGWFRQAPGKEREGVSLSSYVGAVYYATSVKGRFTISRDNAKNTVYLQMNSLKPEDTAVYYCARGHFTYDDGRISIRSVDHWGKGTLVTVSS	–	binding result (human P2X4): no binding (tested: 147 nM); binding result (human P2X7): no binding (tested: 147 nM); absorption ratio (ELISA) (mouse P2X7 [2]): 14 ratio; Fold Cho P2X7/wt (phage ELISA) (mouse P2X7 [3]): 14 fold; MFI FACS (pre-Myc incubation) (mouse P2X7 [4]): 69 MFI
P2X7PMP4G6 (VHH, family 1; on phage or c-myc/His6-tagged in assays) VHH: EVQLVESGGDVVQAGGSLRLSCLASGFTFDDYAIGWFRQAPGKEREGISCISSTGNVFYADSVKGRFTISSDKEKNTLYLQMNSLKPEDTAVYHCAAGHFTVDSGKVLLRTDVSSWGQGTQVTVSS	binds	–
P2X7PMP16H8 (VHH, family 1; on phage or c-myc/His6-tagged in assays) VHH: EVQLVESGGDVVQAGGSLRLSCLASGFTFDDYAIGWFRQAPGKEREGISCISSTGNVFYADSVKGRLTISSDKEKNTLYLQMNSLKPEDTAVYHCAAGHFTVDSGKVLLRTDISSWGQGTQVTVSS	binds	–
P2X7PMP20E8 (VHH, family 1; on phage or c-myc/His6-tagged in assays) VHH: EVQLVESGGDVVQAGGSLRLSCLASGFTFDDYAIGWFRQAPGKEREGISCISSTGNVFYADSVKGRFTISSDKEKNTLYLQMNSLKPGDTAVYHCAAGHFTVDSGKVLLRTDISSWGQGTQVTVSS	binds	–
P2X7PMP5F1 (VHH, family 3; on phage or c-myc/His6-tagged in assays) VHH: EVQLVESGGGLVQAGGSLRLSCAASERTYSMGWFRQAPGKEREFVAGSGWDGIPTRYADSVKGRFTISRDNAKNTVSLQMSGLKPEDTAIYYCATGTSVYHYQYWGQGTQVTVSS	binds	–
P2X7PMP13B2 (VHH, family 3; on phage or c-myc/His6-tagged in assays) VHH: EVQLVESGGGLVQAGGSLRLSCAASERTYSMGWFRQAPGKEREFVAGSGWDGIPTRYADSVKGRFTISRDNAKNAVSLQMSGLKPEDTAIYYCATGTSVYHYQYWGQGTQVTVSS	binds	–
P2X7PMP11G1 (VHH, family 3; on phage or c-myc/His6-tagged in assays) VHH: EVQLVESGGGLVQAGGSLRLSCAASERTYSMGWFRRAPGKEREFVAGSGWDGIPTRYADSVKGRFTISRDNAKNTVSLQMSGLKPEDTAIYYCATGTSVYHYQYWGQGTQVTVSS	binds	–
P2X7PMP11D3 (VHH, family 3; on phage or c-myc/His6-tagged in assays) VHH: EVQLVESGGGLVQPGGSLRLSCAASERTYSMGWFRQAPGKEREFVAGSGWDGIPTRYADSVKGRFTISRDNAKNTVSLQMSGLKPEDTAIYYCATGTSVYHYQYWGQGTQVTVSS	binds	–
P2X7PMP11A1 (VHH, family 3; on phage or c-myc/His6-tagged in assays) VHH: EVQLVESGGGLVQAGGSLRLSCAASERTYSVGWFRQAPGKEREFVAGSGWDGTPTRYADSVKGRFTISRDNAKNTVSLQMSGLKPEDTAIYYCATGTSVYHYQYWGQGTQVTVSS	binds	–
P2X7PMP5B1 (VHH, family 3; on phage or c-myc/His6-tagged in assays) VHH: EVQLVESGGGLVQAGGSLRLSCAASERTYSMGWFRQAPGKEREFVAGSGWDGIPTRYADSVKGRFTISRDNAKNTVSLQMSGLKPEDTAIYYCATGTSVYHYQYRGQGTQVTVSS	binds	–
P2X7PMP7F3 (VHH, family 3; on phage or c-myc/His6-tagged in assays) VHH: EVQLVESRGGLVQAGGSLRLSCAASERTYSMGWFRQAPGKEREFVAGSGWDGIPTRYADSVKSRFTISRDNAKNTVSLQMSGLKPEDTAIYYCATGTSVYHYQYWGQGTQVTVSS	binds	–
P2X7PMP7F1 (VHH, family 3; on phage or c-myc/His6-tagged in assays) VHH: EVQLVESGGGLVQAGGSLRLSCAASERTYSMGWFRQAPGKEREFVAGSGWDGIPTRYADSVKGRFTISRDNAKSTVSLQMSGLKPEDTAIYYCATGTSVYHYQYWGQGTQVTVSS	binds	–
P2X7PMP7F9 (VHH, family 9; on phage or c-myc/His6-tagged in assays) VHH: EVQLVESGGGLVQAGASLRVSCAASARTGSYTMGWFRQAPGKEREFVSTISWNGASTVYADSVKGRFTISRDNAKNTVSLQMNSLKPEDTAVYYCAGSISSYSSRWQDDYEYWGQGTQVTVSS	binds	–
P2X7PMP20H9 (VHH, family 24; on phage or c-myc/His6-tagged in assays) VHH: EVQLVESGGRVMQTGGSLRLSCAASGHTFNDYSMGWFRQAPGKELEFLAGINWSGMSTWYADSVKDRFTISRDNNKNTVFLQMNSLEPGDTAVYYCAARQWISTIILTAPSQYDYWGQGTQVTVSS	binds	–
P2X7PMP8F5 (VHH, family 5, 2; on phage or c-myc/His6-tagged in assays) VHH: EVQLVKSGGGLVQAGGSLRLSCAASGSFFRVNNMAWYRQAPGKQRELVADITRGDRTNYADSVNGRFTISRDNVRNTVYLQMNGLKPEDTAVYYCYARIELGPLVPRDYWGQGTQVTVSS	–	ATP IC50 by 2 uM NB (head prints 'mM'; ligand titration at fixed Nanobody, CD62L shedding, Yac-1 cells) (mouse P2X7 [5]): 0.171 mM; IC50 (nM) against 20 uM NAD (CD62L shedding, Yac-1 cells) (mouse P2X7 [5]): 579 nM; IC50 (nM) against 100 uM ATP (CD62L shedding, Yac-1 cells) (mouse P2X7 [5]): 350 nM; binding result (human P2X4): no binding (tested: 147 nM); binding result (human P2X7): no binding (tested: 147 nM); absorption ratio (ELISA) (mouse P2X7 [2]): 16 ratio; Fold Cho P2X7/wt (phage ELISA) (mouse P2X7 [3]): 16 fold; MFI FACS (pre-Myc incubation) (mouse P2X7 [4]): 143 MFI
